Results from ChEMBL document CHEMBL4024756, “Identification of 4-Phenoxyquinoline Based Inhibitors for L1196M Mutant of Anaplastic Lymphoma Kinase by Structure-Based Design” (J Med Chem, 2017).

Tests used:
Settings in all cases: Homo sapiens
[1] = substrate: Cc1ccc(Oc2ccnc3cc(-c4cnn(C5CCNCC5)c4)ccc23)cc1
[2] = substrate: Cc1ccc(Oc2ccnc3cc(-c4cnn(C5CCNCC5)c4)ccc23)cc1; remark: listed apart in the source
[3] = substrate: Cc1ccc(Oc2ccnc3cc(-c4cnn(C5CCNCC5)c4)ccc23)cc1; remark: listed apart in the source
[4] = substrate: Cc1ccc(Oc2ccnc3cc(-c4cnn(C5CCNCC5)c4)ccc23)cc1; remark: listed apart in the source
[5] = substrate: Cc1ccc(Oc2ccnc3cc(-c4cnn(C5CCNCC5)c4)ccc23)cc1; remark: listed apart in the source

B1: ALK tyrosine kinase receptor (Homo sapiens), Q9UM73 L1196M (protein)
chain: MGAIGLLWLLPLLLSTAAVGSGMGTGQRAGSPAAGPPLQPREPLSYSRLQRKSLAVDFVVPSLFRVYARDLLLPPSSSELKAGRPEARGSLALDCAPLLRLLGPAPGVSWTAGSPAPAEARTLSRVLKGGSVRKLRRAKQLVLELGEEAILEGCVGPPGEAAVGLLQFNLSELFSWWIRQGEGRLRIRLMPEKKASEVGREGRLSAAIRASQPRLLFQIFGTGHSSLESPTNMPSPSPDYFTWNLTWIMKDSFPFLSHRSRYGLECSFDFPCELEYSPPLHDLRNQSWSWRRIPSEEASQMDLLDGPGAERSKEMPRGSFLLLNTSADSKHTILSPWMRSSSEHCTLAVSVHRHLQPSGRYIAQLLPHNEAAREILLMPTPGKHGWTVLQGRIGRPDNPFRVALEYISSGNRSLSAVDFFALKNCSEGTSPGSKMALQSSFTCWNGTVLQLGQACDFHQDCAQGEDESQMCRKLPVGFYCNFEDGFCGWTQGTLSPHTPQWQVRTLKDARFQDHQDHALLLSTTDVPASESATVTSATFPAPIKSSPCELRMSWLIRGVLRGNVSLVLVENKTGKEQGRMVWHVAAYEGLSLWQWMVLPLLDVSDRFWLQMVAWWGQGSRAIVAFDNISISLDCYLTISGEDKILQNTAPKSRNLFERNPNKELKPGENSPRQTPIFDPTVHWLFTTCGASGPHGPTQAQCNNAYQNSNLSVEVGSEGPLKGIQIWKVPATDTYSISGYGAAGGKGGKNTMMRSHGVSVLGIFNLEKDDMLYILVGQQGEDACPSTNQLIQKVCIGENNVIEEEIRVNRSVHEWAGGGGGGGGATYVFKMKDGVPVPLIIAAGGGGRAYGAKTDTFHPERLENNSSVLGLNGNSGAAGGGGGWNDNTSLLWAGKSLQEGATGGHSCPQAMKKWGWETRGGFGGGGGGCSSGGGGGGYIGGNAASNNDPEMDGEDGVSFISPLGILYTPALKVMEGHGEVNIKHYLNCSHCEVDECHMDPESHKVICFCDHGTVLAEDGVSCIVSPTPEPHLPLSLILSVVTSALVAALVLAFSGIMIVYRRKHQELQAMQMELQSPEYKLSKLRTSTIMTDYNPNYCFAGKTSSISDLKEVPRKNITLIRGLGHGAFGEVYEGQVSGMPNDPSPLQVAVKTLPEVCSEQDELDFLMEALIISKFNHQNIVRCIGVSLQSLPRFILMELMAGGDLKSFLRETRPRPSQPSSLAMLDLLHVARDIACGCQYLEENHFIHRDIAARNCLLTCPGPGRVAKIGDFGMARDIYRASYYRKGGCAMLPVKWMPPEAFMEGIFTSKTDTWSFGVLLWEIFSLGYMPYPSKSNQEVLEFVTSGGRMDPPKNCPGPVYRIMTQCWQHQPEDRPNFAIILERIEYCTQDPDVINTALPIEYGPLVEEEEKVPVRPKDPEGVPPLLVSQQAKREEERSPAAPPPLPTTSSGKAAKKPTAAEISVRVPRGPAVEGGHVNMAFSQSNPPSELHKVHGSRNKPTSLWNPTYGSWFTEKPTKKNNPIAKKEPHDRGNLGLEGSCTVPPNVATGRLPGASLLLEPSSLTANMKEVPLFRLRHFPCGNVNYGYQQQGLPLEAATAPGAGHYEDTILKSKNSMNQPGP
With B1 the Km [1] was 860 µM, the Km [2] was 298 µM and the Km [3] was 94.6 µM. For the same protein, the Km [4] was 58.8 µM and the Km [5] was 32.6 µM.
